Laboratory results as given in paper PMC10216364, “Structural Insight into the Mechanism of σ32-Mediated Transcription Initiation of Bacterial RNA Polymerase” (Biomolecules, 2023).

Key:
[1] = biological target: RNA polymerase core enzyme;chimera sigma32-38 (E. coli;E. coli) (UniProt P0A7Z4+P0A8V2+P0A8T7+P0A800+P0AGB3); test: fluorescence polarization; details: apparent Kd; FP: 10 mM Tris-HCl pH 7.7, 100 mM NaCl, 1 mM DTT, 1% glycerol, 0.025% Tween-20, 5 nM DNA, 10-320 nM holoenzyme, room temperature, 5 min; stopped-flow: 10 mM …
[2] = biological target: RNA polymerase core enzyme;chimera sigma32-28 (E. coli;E. coli) (UniProt P0A7Z4+P0A8V2+P0A8T7+P0A800+P0AGB3); test: fluorescence polarization; details: apparent Kd; FP: 10 mM Tris-HCl pH 7.7, 100 mM NaCl, 1 mM DTT, 1% glycerol, 0.025% Tween-20, 5 nM DNA, 10-320 nM holoenzyme, room temperature, 5 min; stopped-flow: 10 mM …
[3] = biological target: RNA polymerase core enzyme;sigma32 (RpoH) wild type (E. coli;E. coli, UniProt P0A7Z4;P0A8V2;P0A8T7;P0A800;P0AGB3 1-329;1-1342;1-1407;1-91;1-284, |); test: fluorescence polarization; apparent Kd; FP: 10 mM Tris-HCl pH 7.7, 100 mM NaCl, 1 mM DTT, 1% glycerol, 0.025% Tween-20, 5 nM DNA, 10-320 nM holoenzyme, room temperature, 5 min; stopped-flow: 10 mM Tris-HCl pH 7.7, 20 mM NaCl, 10 mM MgCl2, 1 mM DTT; details: protein: recombinant;recombinant, tags: ;His tag (pET28a, Ni-NTA), chain copies: 2;1;1;1;1
[4] = biological target: T1, β subunit of E. coli RNAP (E. coli, UniProt P0A8V2 2-1342); test: cryo-EM structure; σ32-RPo: RNAP core enzyme, σ32 and dnaKp1 promoter scaffold mixed at 1:4:1.2 molar ratios, 4 °C overnight, purified on Superdex 200; 20 mM Tris-HCl pH 8.0, 0.1 M NaCl, 1% glycerol, 1 mM DTT; promoter DNA present; details: both partners purified
T1 construct: RNA polymerase subunit beta (RpoB), E. coli; stood in the assay as a subunit of the RNAP core enzyme; A subunit of m2; also called RpoB; bears the β-flap tip helix (βFTH); source: E. coli BL21(DE3), co-expressed from pET28a-rpoA-rpoB-rpoC-rpoZ, purified as part of the RNAP core enzyme

[5] = biological target: T2, β′ subunit of E. coli RNAP (E. coli, UniProt P0A8T7 1-1407); test: as above; details: both partners purified
T2 construct: RNA polymerase subunit beta' (RpoC), E. coli; stood in the assay as a subunit of the RNAP core enzyme; A subunit of m2; also called RNAP-β′; RpoC; source: E. coli BL21(DE3), co-expressed from pET28a-rpoA-rpoB-rpoC-rpoZ, purified as part of the RNAP core enzyme

[6] = biological target: RNA polymerase core enzyme;sigma32 L253A (E. coli;E. coli, UniProt P0A7Z4;P0A8V2;P0A8T7;P0A800;P0AGB3 1-329;1-1342;1-1407;1-91;1-284, |L253A); test: fluorescence polarization; apparent Kd; FP: 10 mM Tris-HCl pH 7.7, 100 mM NaCl, 1 mM DTT, 1% glycerol, 0.025% Tween-20, 5 nM DNA, 10-320 nM holoenzyme, room temperature, 5 min; stopped-flow: 10 mM Tris-HCl pH 7.7, 20 mM NaCl, 10 mM MgCl2, 1 mM DTT; details: protein: recombinant;recombinant; tags: ;His tag (pET28a, Ni-NTA); chain copies: 2;1;1;1;1; blunt
[7] = biological target: RNA polymerase core enzyme;sigma32 R266A (E. coli;E. coli, UniProt P0A7Z4;P0A8V2;P0A8T7;P0A800;P0AGB3 1-329;1-1342;1-1407;1-91;1-284, |R266A); test: as above; details: protein: recombinant;recombinant; tags: ;His tag (pET28a, Ni-NTA); chain copies: 2;1;1;1;1; blunt
[8] = biological target: RNA polymerase core enzyme;sigma32 R268A (E. coli;E. coli, UniProt P0A7Z4;P0A8V2;P0A8T7;P0A800;P0AGB3 1-329;1-1342;1-1407;1-91;1-284, |R268A); test: as above; details: protein: recombinant;recombinant; tags: ;His tag (pET28a, Ni-NTA); chain copies: 2;1;1;1;1; blunt
[9] = biological target: RNA polymerase core enzyme;sigma32 E265A (E. coli;E. coli, UniProt P0A7Z4;P0A8V2;P0A8T7;P0A800;P0AGB3 1-329;1-1342;1-1407;1-91;1-284, |E265A); test: as above; details: protein: recombinant;recombinant; tags: ;His tag (pET28a, Ni-NTA); chain copies: 2;1;1;1;1; blunt

## CCTTGAAGACGTGGTTTACGACCCCATTTAGTAG / GGGGTCGTAAACCACGTCTTCAAGG [long promoter DNA, -35 to -10 bubble]
[1]
  Kd: 8.34 nM
[2]
  Kd: 9.22 nM

B1: long promoter DNA, -35 to -10 bubble (mixed)
DNA 1: CCTTGAAGACGTGGTTTACGACCCCATTTAGTAG
DNA 2: GGGGTCGTAAACCACGTCTTCAAGG
[3]; 25 bp duplex, 3' overhang 9 nt on S5 (fork-junction type)
  Kd: 14.9 nM

B2: E. coli σ^32 (natural protein)
chain: MTDKMQSLALAPVGNLDSYIRAANAWPMLSADEERALAEKLHYHGDLEAAKTLILSHLRFVVHIARNYAGYGLPQADLIQEGNIGLMKAVRRFNPEVGVRLVSFAVHWIKAEIHEYVLRNWRIVKVATTKAQRKLFFNLRKTKQRLGWFNQDEVEMVARELGVTSKDVREMESRMAAQDMTFDLSSDDDSDSQPMAPVLYLQDKSSNFADGIEDDNWEEQAANRLTDAMQGLDERSQDIIRARWLDEDNKSTLQELADRYGVSAERVRQLEKNAMKKLRAAIEA
notes: RNA polymerase sigma factor σ32 (RpoH), E. coli; the N-terminus was not modelled in the structure; the tag and its end are not described; also called sigma 32; RpoH; source: E. coli BL21(DE3), plasmid pET28a-rpoH, purified (Ni-NTA, HiTrap Heparin)
[4]
  binding result: binds
[5]
  binding result: binds

B3: short -35 element DNA (dsDNA)
DNA 1: CCTTGAAGACGTGG
DNA 2: CCACGTCTTCAAGG
[6]
  Kd: 38.8 nM
[3]; blunt
  Kd: 28.4 nM
[7]
  Kd: 54.9 nM
[8]
  Kd: 46.7 nM
[9]
  Kd: 45.9 nM
